{"source": "patent US20250388669A1", "about": "(published 2025)", "binders": {"B1": {"name": "Ly2367 (other)", "chain 1": "QVQLVQSGAEVKKPGASVKVSCKASGYTFTSYVMHWVRQKPGQGLEWIGYINPYNEGTESTDKFKGRATMTSDKSTSTVYMELSSLRSEDTAVYYCASIYYGYEGTYFGVWGQGTLVTVSSASTKGPSVFPLAPSSKSTSGGTAALGCLVKDYFPEPVTVSWNSGALTSGVHTFPAVLQSSGLYSLSSVVTVPSSSLGTQTYICNVNHKPSNTKVDKKVEPKSCGGGGSEVQLVESGGGLVQPGGSLRLSCAASGFTFSTYAMNWVRQAPGKGLEWVGRIRSKYNNYATYYADSVKGRFTISRDDSKNSLYLQMNSLKTEDTAVYYCVRHGNFGNSYVSWFAYWGQGTLVTVSSGGGGSDKTHTCPPCPAPEAAGPSVFLFPPKPKDTLMISRTPEVTCVVVDVSHEDPEVKFNWYVDGVEVHNAKTKPREEQYNSTYRVVSVLTVLHQDWLNGKEYKCKVSNKALPAPIEKTISKAKGQPREPQVYTLPPSREEMTKNQVSLWCLVKGFYPSDIAVEWESNGQPENNYKTTPPVLDSDGSFFLYSKLTVDKSRWQQGNVFSCSVMHEALHNHYTQKSLSLSPGGGGGSGGGGSGGGGSGGGGSQVQLVQSGAEVKKPGASVKVSCKASGYTFAGFEMHWVRQAPGQGLEWMGAIDPKTGGTDYNQKFKDRVTMTRDTSISTAYMELSRLRSDDTAVYYCARDLGYFDVWGQGTLVTVSS", "chain 2": "QVQLVQSGAEVKKPGASVKVSCKASGYTFTSYVMHWVRQKPGQGLEWIGYINPYNEGTESTDKFKGRATMTSDKSTSTVYMELSSLRSEDTAVYYCASIYYGYEGTYFGVWGQGTLVTVSSASTKGPSVFPLAPSSKSTSGGTAALGCLVKDYFPEPVTVSWNSGALTSGVHTFPAVLQSSGLYSLSSVVTVPSSSLGTQTYICNVNHKPSNTKVDKKVEPKSCGGGGSQAVVTQEPSLTVSPGGTVTLTCRSSTGAVTTSNYANWVQQKPGQAPRGLIGGTNKRAPWTPARFSGSLLGGKAALTITGAQAEDEADYYCALWYSNLWVFGGGTKLTVLGGGGSDKTHTCPPCPAPEAAGPSVFLFPPKPKDTLMISRTPEVTCVVVDVSHEDPEVKFNWYVDGVEVHNAKTKPREEQYNSTYRVVSVLTVLHQDWLNGKEYKCKVSNKALPAPIEKTISKAKGQPREPQVYTLPPSREEMTKNQVSLSCAVKGFYPSDIAVEWESNGQPENNYKTTPPVLDSDGSFFLVSKLTVDKSRWQQGNVFSCSVMHEALHNRFTQKSLSLSPGGGGGSGGGGSGGGGSGGGGSDIQMTQSPSSLSASVGDRVTITCRASQDIRSNLNWYQQKPGGAVKLLIYYTSRLHSGVPSRFSGSGSGTDYTLTISSLQPEDFATYFCQQSEKLPRTFGGGTKVEIR", "light": "EIVLTQSPATLSLSPGERATLSCRASSSVSYMHWYQQKPGQAPRPWIYATSNLASGIPARFSGSRSGTDYTLTISSLEPEDFAVYYCQQWSSNTLTFGGGTKVEIKRTVAAPSVFIFPPSDEQLKSGTASVVCLLNNFYPREAKVQWKVDNALQSGNSQESVTEQDSKDSTYSLSSTLTLSKADYEKHKVYACEVTHQGLSSPVTKSFNRGEC", "notes": "Tri-specific antibody: B7H3 Fabs, central CD3 Fv, terminal CD137 Fv; Flexible linker is G4S"}}, "molecular_target": "T1, B7H3 (human, UniProt Q5ZPR3 29-466, limits assumed)", "T1 sequence (looked up)": "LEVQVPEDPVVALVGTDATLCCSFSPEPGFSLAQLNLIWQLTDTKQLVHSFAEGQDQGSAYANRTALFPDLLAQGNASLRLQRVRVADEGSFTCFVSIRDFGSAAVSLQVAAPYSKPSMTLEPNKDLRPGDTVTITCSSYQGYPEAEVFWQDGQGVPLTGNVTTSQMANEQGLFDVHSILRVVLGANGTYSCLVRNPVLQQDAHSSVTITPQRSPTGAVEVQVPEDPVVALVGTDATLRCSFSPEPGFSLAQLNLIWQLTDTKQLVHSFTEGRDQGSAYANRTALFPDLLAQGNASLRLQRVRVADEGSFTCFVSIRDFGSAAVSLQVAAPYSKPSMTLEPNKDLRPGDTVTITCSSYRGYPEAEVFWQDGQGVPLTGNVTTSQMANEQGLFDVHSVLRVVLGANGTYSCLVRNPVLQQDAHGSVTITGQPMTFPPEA", "assay": "ELISA or FCM (Example 2)", "data": [{"binder": "B1", "values": [{"measurement": "binding result", "value": "binds"}]}]}
